T1: EBV LMP2 (latent membrane protein 2) peptide on HLA-A*01:01 (human)
T1 peptide: ESEERPPTPY


Target: T1, EBV LMP2 (latent membrane protein 2) …
Experiment: multimer staining

Binder | binding result
TCR-C1 (TCR) alpha TRAV30 TRAJ45 CDR3: CGTGSGGGADGLTF beta TRBV6-3 TRBJ2-1 CDR3: CASSPEGVFNEQFF | recognises
EBV-LMP2^ESE-specific TCR C^2 from donor C (TCR) alpha TRAV30 TRAJ45 CDR3: CGTEDGRGGADGLTF beta TRBV6-3 TRBJ2-1 CDR3: CASSYGIYEQFF | recognises
EBV-LMP2^ESE-specific TCR from donor A (TCR) alpha TRAV12 TRAJ3 CDR3: CVVTGYSSASKIIF beta TRBV6-3 TRBJ2-1 CDR3: CASSWEGQYNEQFF | recognises
TCR-B1 (TCR) alpha TRAV12 TRAJ3 CDR3: CVVTGYSSASKIIF beta TRBV6-3 TRBJ2-1 CDR3: CASSSEGQFNEQFF | recognises
EBV-LMP2^ESE-specific TCR from donor E (TCR) alpha TRAV26 TRAJ23 CDR3: CIVSGGKLIF beta TRBV12-3/4 TRBJ2-5 CDR3: CASSSSWTSGSGETQYF | recognises
